Test results published in publication PMC3716610.

Experiments:
Experiment in all cases: EMSA
Details in all cases: 25 mM Tris-HCl pH 7.5, 50 mM KCl, 0.5 mM MgCl2, 100 µg/ml BSA, 1 mM DTT, 10% glycerol; 0.1 µM DNA; 37°C, 30 min; 1% agarose gel, ethidium bromide
[1] = system: MBP-3B2ct (C-terminal DNMT3B2) (human)
[2] = system: MBP-3B2ct (C-terminal DNMT3B2);GST-3B2ct (human;human)
[3] = system: MBP-3B2ct (C-terminal DNMT3B2);GST-3B3ct (human;human)
[4] = system: MBP-3B3ct (C-terminal DNMT3B3) (human)
[5] = system: MBP-3B4ct (C-terminal DNMT3B4) (human)

420 bp DNMT3B PWWP fragment gave a Kd [1] of 220 nM, a Kd [2] of 400 nM and a Kd [3] of 1500 nM. For the same substance, the Kd [4] was 160 nM and the Kd [5] was 2420 nM.
